Measurements as given in the Human Domainome abundance scans (Beltran et al. 2025).
± gives the uncertainty stated by the source.

B1: Far upstream element-binding protein 3, residues 75 to 150; numbered along this chain, Q96I24 (parent)
chain: RTVITEEFKVPDKMVGFIIGRGGEQISRIQAESGCKIQIASESSGIPERPCVLTGTPESIEQAKRLLGQIVDRCRN
B2: Storkhead-box protein 2, residues 64 to 141; numbered along this chain, Q9P2F5 (parent)
chain: SPISQSQFIPLGEILCLAISAMNSARKPVTQEALMEHLTTCFPGVPTPSQEILRHTLNTLVRERKIYPTPDGYFIVTP

Variants of: B1
Experiment: abundance fitness (aPCA) (normalised: wild type 0, dead -1); higher = more abundant; growth selection in yeast, the domain comes from the species named
Conditions: Homo sapiens

Abundance fitness: each site, then its substitutions
R75: N -0.126 ± 0.081; A 0.064 ± 0.032; G 0.038 ± 0.026; D -0.082 ± 0.058; S -0.021 ± 0.035; P -0.025 ± 0.038; E 0.047 ± 0.043; I -0.107 ± 0.067; M 0.009 ± 0.051; V 0.008 ± 0.035; T 0.052 ± 0.044; K 0.043 ± 0.061; F 0.003 ± 0.073; W 0.007 ± 0.034; L -0.039 ± 0.035; C -0.124 ± 0.055; H -0.006 ± 0.069; Q -0.026 ± 0.052
D72: W -0.108 ± 0.035; V -0.093 ± 0.029; K -0.048 ± 0.049; E 0.003 ± 0.033; P -0.142 ± 0.039; N -0.155 ± 0.061; M -0.084 ± 0.042; I -0.225 ± 0.064; A -0.052 ± 0.029; H -0.023 ± 0.058; G -0.033 ± 0.026; Q -0.086 ± 0.041; S -0.035 ± 0.033; Y -0.124 ± 0.064; T -0.1 ± 0.04; L -0.083 ± 0.033; F -0.118 ± 0.065; C -0.138 ± 0.046
V71: P -0.198 ± 0.043; E -0.073 ± 0.034; D -0.159 ± 0.046; L -0.092 ± 0.034; S -0.118 ± 0.037; R -0.151 ± 0.026; Q -0.048 ± 0.044; M -0.013 ± 0.04; I -0.018 ± 0.067; G -0.105 ± 0.026; K -0.132 ± 0.044; T -0.026 ± 0.042; A -0.117 ± 0.03; F -0.099 ± 0.058; N -0.072 ± 0.054; Y -0.047 ± 0.054; W -0.175 ± 0.035; H -0.21 ± 0.054
Q69: C -0.076 ± 0.046; M -0.03 ± 0.043; G -0.012 ± 0.03; E 0.025 ± 0.037; I 0.02 ± 0.062; V -0.009 ± 0.031; F -0.181 ± 0.062; H 0.021 ± 0.059; K -0.046 ± 0.044; W -0.283 ± 0.038; A -0.006 ± 0.032; N -0.059 ± 0.057; D 0.021 ± 0.049; R 0.005 ± 0.029; P -0.156 ± 0.039; S -0.002 ± 0.031
N76: L -0.028 ± 0.049; T -0.057 ± 0.061; M -0.008 ± 0.077; C -0.069 ± 0.06; H -0.1 ± 0.076; E -0.025 ± 0.067; A 0.036 ± 0.055; Q -0.145 ± 0.11; Y -0.027 ± 0.095; F 0.023 ± 0.1; I -0.178 ± 0.086; R 0.055 ± 0.042; K -0.183 ± 0.079; P 0.007 ± 0.059; W -0.092 ± 0.056
I70: C -0.023 ± 0.039; D -0.209 ± 0.056; S -0.055 ± 0.034; V 0.024 ± 0.031; M -0.013 ± 0.04; F -0.044 ± 0.05; W -0.102 ± 0.035; K -0.138 ± 0.044; A 0.05 ± 0.034; G -0.205 ± 0.027; T 0.014 ± 0.046; E -0.004 ± 0.035; H -0.096 ± 0.055; N -0.261 ± 0.087; L -0.035 ± 0.034; R -0.024 ± 0.028; P -0.335 ± 0.051; Q -0.064 ± 0.043; Y 0.044 ± 0.052
G68: W -0.065 ± 0.037; P -0.723 ± 0.061; S -0.065 ± 0.035; Y -0.045 ± 0.056; T -0.06 ± 0.039; V -0.017 ± 0.032; R -0.036 ± 0.029
C74: I -0.057 ± 0.071; H 0.031 ± 0.049; R 0.008 ± 0.027; V -0.037 ± 0.03; S -0.01 ± 0.032; E -0.041 ± 0.037; K -0.027 ± 0.054; D -0.068 ± 0.058; Q -0.002 ± 0.04; T 0.004 ± 0.036; W -0.022 ± 0.031; N -0.007 ± 0.071; A 0.02 ± 0.029; M -0.021 ± 0.042; G 0.041 ± 0.027; Y -0.126 ± 0.059
R73: D 0.047 ± 0.052; T 0.019 ± 0.042; G 0.054 ± 0.029; N 0.037 ± 0.066; M -0.048 ± 0.042; I -0.136 ± 0.07; F -0.103 ± 0.059; C -0.157 ± 0.05; V -0.037 ± 0.033; W -0.089 ± 0.039; P -0.001 ± 0.045; L -0.104 ± 0.033; S -0.04 ± 0.033; E 0.043 ± 0.036; Y -0.151 ± 0.058

Variants of: B2
Experiment: as above
Conditions: Homo sapiens

Abundance fitness: each site, then its substitutions
Q5: R -0.068 ± 0.037; G -0.12 ± 0.037; Y -0.055 ± 0.083; S -0.007 ± 0.035; D -0.021 ± 0.079; L -0.079 ± 0.043; W -0.276 ± 0.051; K 0.012 ± 0.09; P -0.125 ± 0.055; I -0.052 ± 0.078; E -0.015 ± 0.088; F -0.109 ± 0.074; C -0.025 ± 0.063; H -0.099 ± 0.081; A 0.037 ± 0.041; T 0.049 ± 0.055
I9: L 0.03 ± 0.041; A 0.005 ± 0.066; N 0.131 ± 0.1; W -0.011 ± 0.063; R 0.03 ± 0.058; H -0.243 ± 0.48; G 0.025 ± 0.036; Y -0.082 ± 0.1; V 0.011 ± 0.036; P 0.046 ± 0.071; T 0.007 ± 0.06; K 0.044 ± 0.11; E 0.074 ± 0.1; Q 0.101 ± 0.14; C 0.067 ± 0.059; M 0.062 ± 0.084; D -0.035 ± 0.1
L11: H -0.051 ± 0.22; F 0.054 ± 0.12; G -0.277 ± 0.05; K -0.51 ± 0.1; W -0.418 ± 0.076; Y -0.008 ± 0.1; R -0.428 ± 0.05; A -0.258 ± 0.033; P -0.299 ± 0.074; Q -0.32 ± 0.095; S -0.396 ± 0.056; I -0.096 ± 0.22; N -0.466 ± 0.21; E -0.325 ± 0.091; V -0.163 ± 0.064; T -0.278 ± 0.082; C -0.62 ± 0.24; D -0.316 ± 0.13
G12: C -0.135 ± 0.32; A -0.3 ± 0.29; V -0.452 ± 0.2; D -0.127 ± 0.33
I3: G -0.046 ± 0.028; S 0.004 ± 0.038; A -0.075 ± 0.039; Q -0.12 ± 0.048; C -0.16 ± 0.057; N -0.207 ± 0.063; W -0.44 ± 0.048; H -0.017 ± 0.062; Y -0.158 ± 0.088; T -0.024 ± 0.072; V 0.001 ± 0.034; E 0.041 ± 0.06; F -0.255 ± 0.084; P -0.106 ± 0.047; M -0.047 ± 0.058; R -0.022 ± 0.035
P2: V 0.001 ± 0.052; E -0.18 ± 0.08; L 0.046 ± 0.047; I -0.037 ± 0.14; D 0.124 ± 0.095; Y 0.107 ± 0.1; C -0.15 ± 0.14; W -0.102 ± 0.07; Q 0.103 ± 0.067; S 0.002 ± 0.051; R 0.019 ± 0.029; H 0.051 ± 0.12; N 0.188 ± 0.17; M 0.013 ± 0.065; G -0.095 ± 0.042; A -0.084 ± 0.055; K -0.137 ± 0.081
Q7: H -0.122 ± 0.085; C -0.154 ± 0.1; N -0.015 ± 0.16; E 0.023 ± 0.17; I -0.068 ± 0.099; A 0.043 ± 0.053; G 0.063 ± 0.033; L -0.085 ± 0.052; D -0.032 ± 0.17; T -0.02 ± 0.072; S 0.036 ± 0.049; P -0.021 ± 0.045; V -0.064 ± 0.041; F -0.065 ± 0.067; K -0.051 ± 0.086; W -0.152 ± 0.049
S1: M -0.227 ± 0.15; A -0.395 ± 0.083; Y -0.122 ± 0.093; D -0.027 ± 0.19; C -0.178 ± 0.067; L -0.207 ± 0.065; F -0.092 ± 0.084; E -0.581 ± 0.24; T -0.486 ± 0.14; P -0.469 ± 0.15; G -0.263 ± 0.054; R -0.344 ± 0.1; H -0.103 ± 0.2; K -0.717 ± 0.15; W -0.83 ± 0.12; V -0.354 ± 0.07
P10: T -0.024 ± 0.11; V 0.171 ± 0.063; N 0.108 ± 0.12; H -0.101 ± 0.099; D -0.135 ± 0.21; E -0.043 ± 0.072; Y 0.003 ± 0.23; S -0.067 ± 0.047; A -0.027 ± 0.051; R 0.089 ± 0.04; L 0.085 ± 0.047; W 0.175 ± 0.076; F -0.04 ± 0.093; C -0.136 ± 0.12; I 0.302 ± 0.4; M 0.048 ± 0.17; K 0.016 ± 0.11
S6: G -0.041 ± 0.032; E -0.046 ± 0.061; R -0.062 ± 0.034; W -0.246 ± 0.056; D 0.027 ± 0.069; Y -0.206 ± 0.078; F -0.091 ± 0.079; Q -0.069 ± 0.087; K -0.126 ± 0.075; I -0.148 ± 0.061; M -0.123 ± 0.079; H -0.334 ± 0.26; N -0.033 ± 0.078; T -0.079 ± 0.058; P -0.07 ± 0.055; V -0.171 ± 0.035
F8: R -0.059 ± 0.03; Y -0.326 ± 0.14; V -0.063 ± 0.043; M -0.102 ± 0.079; W -0.016 ± 0.058; C -0.104 ± 0.071; A -0.055 ± 0.07; S 0.017 ± 0.058; P -0.081 ± 0.08; N -0.021 ± 0.16; E -0.012 ± 0.082; L -0.135 ± 0.054; H 0.015 ± 0.13; T -0.08 ± 0.096; Q -0.196 ± 0.075; D -0.027 ± 0.12; G -0.103 ± 0.052; I -0.017 ± 0.075; K -0.137 ± 0.11
E13: C -0.152 ± 0.081; F -0.349 ± 0.081; D -0.001 ± 0.11
S4: R -0.155 ± 0.043; L -0.026 ± 0.041; A -0.098 ± 0.039; N -0.038 ± 0.1; H 0.008 ± 0.11; K -0.154 ± 0.093; W -0.161 ± 0.061; C -0.013 ± 0.068; M 0.002 ± 0.066; Y -0.076 ± 0.071; F -0.151 ± 0.052; V -0.056 ± 0.042; I -0.079 ± 0.073; D 0.104 ± 0.093; T -0.006 ± 0.046; P 0.007 ± 0.045; G -0.17 ± 0.032
